{
  "source": "the DeepSol protein solubility set",
  "data": [
    {"assay": "soluble on expression in E. coli; label from the status in PepcDB or PDB records", "values": [
      {"sequence": "MAVENITMPQLGESVTEGTISKWLVNVGDHVNKYDPLAEVMTDKVNAEVPSSFTGIVKELIAGEGDTLAVGEVVCVIQVEGADEVAATAVEEKTKEEPKAEVNTPEKAPKAKQPTDGKPRFSPAVLKLAGEHNVDLDLVEGTGANGRITRKDILKLVESGNIPQAGAVKKEEAVAAVVEARPEAPKAAPVAQKVEAAKPVSVPTMPGDIEIPVTGVRKAIAANMLRSKHEAPHAWMMIEVDVTNLVSYRNSIKGDFKKREGFNLTFFAFFVKAVAQALKEYPQINSMWAGDKIVQKKDINLSIAVATEDELFVPVIKHADEKTIKGIAREITELAGKVRTKSLKADEMQGGTFTINNTGSFGSVQSMGIINYPQAAILQVESIVKRPVIMENGMFGARDMVNLCLSLDHRVLDGLICGKFLGRVKEILENTSENNTSVY", "soluble on expression in E. coli": "not soluble"},
      {"sequence": "MMINVHSYESMGTFDGPGLRLVVFLQGCNFRCLYCANPDTIAGKGGTPTPPEEIVRMAMSQRPFFGKRGGITFSGGEPTFQAKALVPLVRELKERGIHVCLDSNGGLWNEDVEELFKLTDLVLLDIKEFNPNRHQTLTGRSNEQTIRTAAWLEEQGKPFWLRYVLVPGYSDFEEDIRALGEALGKYKMIQRVEILPYHTLGVHKYEAMGQEYKMKGVKENTPEQLEKAAEVFKEYFTTVVVNLEHHHHHH", "soluble on expression in E. coli": "soluble"},
      {"sequence": "MVSKRTKESIRNLNIFKGLELCIHISESVSYRVSKNRTVIFIISIGYKGVTVSKGPTYQERFTFTTQKFNAKSCLNHFLYVINPTKIDDLHFSIITGTFDDPKIQMAVECLKGLRVVNLNTPILSNTKTLAELVKTFEPTEHLKIHRYPFQTLGFAQLFQLREILPGKFPILSLNINMPLNGLLLTSSSSVGVNNNRLLTSKDFNIFLKHWIAGLKPELECIRILDYRLDWNEHTVLKGIPYEVAPMETKIKFRRKEELQLGGFDFTMSSGVKATLHFHYWDRVPITEISVVLHDSEIITFL", "soluble on expression in E. coli": "not soluble"},
      {"sequence": "MGSDKIHHHHHHMMPIRRPFGRGPAVSLFTLGTMRAIGSAEQMYGVVKAAQAAGINHIETSPAYGPAESFLGTALRQLQQKQAEPSGGWVITSKLLPGLSLKEGQCELHNLLARLGRPKLENLAVHGLNRPEHLEWALSGDGAALLRWAEEEDLVVQVGFTSHGSFPLIKEALASGRFQFCSLHLHLLDPERIPLAREALASGMGVMAISPADKGGRLQDPSPTLVEDCSPLSPLQLAYRFLLAAKISTLSLGAAQPEDLTLAAQLANADGPLNQREQRALNQLRQQGERRLGENRCGQCKACLPCPKSVPIPDLLRLRNLAVGHNLQAFTEERYNLIGRAGHWWEGIDGSACERCGECLPRCPHHLPIPDLLADTHQRLAAAPRRRLWG", "soluble on expression in E. coli": "not soluble"},
      {"sequence": "MASHKLLVTPPKALLKPLSIPNQLLLGPGPSNLPPRIMAAGGLQMIGSMSKDMYQIMDEIKEGIQYVFQTRNPLTLVISGSGHCALEAALVNVLEPGDSFLVGANGIWGQRAVDIGERIGARVHPMTKDPGGHYTLQEVEEGLAQHKPVLLFLTHGESSTGVLQPLDGFGELCHRYKCLLLVDSVASLGGTPLYMDRQGIDILYSGSQKALNAPPGTSLISFSDKAKKKMYSRKTKPFSFYLDIKWLANFWGCDDQPRMYHHTIPVISLYSLRESLALIAEQGLENSWRQHREAAAYLHGRLQALGLQLFVKDPALRLPTVTTVAVPAGYDWRDIVSYVIDHFDIEIMGGLGPSTGKVLRIGLLGCNATRENVDRVTEALRAALQHCPKKKL", "soluble on expression in E. coli": "soluble"},
      {"sequence": "NAFVSIQTSTIPKTAFVARDFVPLQNRGNQWVAPVRASEDDPALAKSYLDFAIIEVPLFLHNQMDKQIYDHFMRPAINTYERLGNSVGIFAYQPMASFKRDSYFALGYPQVESNIAALNLNQTEVKPTRPEDVAQVTFKEPWSVDHHREIPTLTTNQLTTIKTKHFSGSKLSWPFDHTKSF", "soluble on expression in E. coli": "not soluble"},
      {"sequence": "MADPIDNNSGKYTVQRFPAVADPADPGYSRCTTWVQAVSHGFHQQRRDDEYLAKTLTAYQTDKRELTGVYVNGSVPDHSLGADVPVATYATMRKALNIGFGRQLEAHLVTAVTVRGTHRRNGILRGMITADLEAAKDDGLAMAALTASEASIYGRFGFGVATFERSIKVDTGPRFRLRGLPQGTVEVADPSVLLDVAPQVFERLQRLSPGSIDRQEYYRLVASGSIGHDGKPDTSVRCALHYDLSGSLDGYVSYRFKGWDHKPYTMEIVDLVAASNAAYLDLWRFLGSIDLIDEVTWVEAPVDDPLAWALEDPRCIEASEIRDMLWLRILDTPAALQARSFPVAGRLVLEVTDSLGLAGGTWVLESDGGAAAVVKEAAGETPDLSLDAADLGSIYLGAVSPVTLAAAGRIQEKTPGAALLAQQLFAVERSAHCLTHF", "soluble on expression in E. coli": "soluble"},
      {"sequence": "MPIWNHNTAYRPWLVSKLKGSRSLLDVGSGDHSFADLAGRQVAHVDVVDPLINTTFEEFQPTQSYDAITFIASLHHMNAEEGLNKAVRILNPGGKLLIVGLAKNKTASDWIISGLQAFLSRPISLINREQQIYPFPTKEPSESLHEIRQLTKQLLPHRRIRRGIHFRYLLEWTKPLEHHHHHH", "soluble on expression in E. coli": "not soluble"},
      {"sequence": "MTKSQQKVSSIEKLSNQEGIISALAFDQRGALKRMMAEHQSETPTVEQIEQLKVLVSEELTQYASSILLDPEYGLPASDARNNDCGLLLAYEKTGYDVNAKGRLPDCLVEWSAKRLKEQGANAVKFLLYYDVDDTEEINIQKKAYIERIGSECVAEDIPFFLEVLTYDDNIPDNKSAEFAKVKPRKVNEAMKLFSEDCFNVDVLKVEVPVNMNFVEGFSEGEVVYTKEEAAQHFRDQDAATHLPYIYLSAGVSAELFQDTLKFAHDSGAQFNGVLCGRATWSGAVKVYIEEGEQAAREWLRTVGFKNIDDLNTVLKTTATSWKNK", "soluble on expression in E. coli": "soluble"},
      {"sequence": "MNNGYSPTSSNQQNVSVEHDIIMRGRRIIDITGVKQVESFDSEEFLLETVMGFLTIRGQNLQMKNLDVEKGIVSIKGKVNEMLYIDENQGEKTKGFFSKLFKLEHHHHHH", "soluble on expression in E. coli": "not soluble"},
      {"sequence": "MDRENILKAVKEARSLAKPRNFTQSLDLIINLKELDLSRPENRLKEQVVLPNGRGKEPKIAVIAKGDLAAQAEEMGLTVIRQDELEELGKNKKMAKKIANEHDFFIAQADMMPLVGKTLGPVLGPRGKMPQPVPANANLTPLVERLKKTVLINTRDKPLFHVLVGNEKMSDEELAENIEAILNTVSRKYEKGLYHVKSAYTKLTMGPPAQIEK", "soluble on expression in E. coli": "soluble"},
      {"sequence": "LRVSDGIAGKMTVLALKNTDERLRADKSVSVGFVLAALMWPELERHWKSNLQQGLKPAPALSDAINTMRETVERGWGVPQRFSATMREIWMFQPQFENRKGARPHKLFAQARFRAAYDFLLLRAETGNADRALAEWWTAFQTASTEQRSEMTKNEAAARHEKNEGQAKKRRRRRRKPKPKVVGTDWE", "soluble on expression in E. coli": "not soluble"},
      {"sequence": "MSLENTDINISALLNVDIDKILKQTIKEKIEKLMEIELNAYLEENPGIKNGKYKRDLKTKYGEIKQLNVPRDRDSNFHTQVIEPYNRSIGMEDLIVSMYSNGISTRRIAGIMEDILGNKYSKSTISRITDLTIEEVYKFINRPLDKRYIAVFLDGLFFYLRRGNVDKEPVIFALGIKETGEYEVLGFYLTVKESHNAYKEVLEDLYNRGLKEPLLIVADGIKNLDEEVMEIYPRSEFQLCTIHYARGLKSNVREKDIDEITIDANKMFKCDNKEEAIIRFNDFKYKWKSKYPKVIYNTEKNLGKLLRFYNYPVNIRKSLKSTNAIERFNGEVRRRVKTISSFPDEDSAMKVFYYKSIEYNSKHAFRKMNGYYKCKDEIKEMFQKREGHHHHHH", "soluble on expression in E. coli": "not soluble"},
      {"sequence": "MNEHIESYHRILEEECLSINEFESFAEAYTIVNEFIKLYNTKRIHSSTKYMPPAEFYEHLRISGETVNMRL", "soluble on expression in E. coli": "not soluble"},
      {"sequence": "MGSDKIHHHHHHLGRRGTADDEILLTYCPTLFIVGAEGRRFNNEAITELRTSMISPSGLVVVGHSNDMILVPTSMLLRLGISQTVVFRMVLEKILDFLNLEPVRQQEFADLVPIELNNVFDLDSALLKSDKALSGLAFASSTHSASSSAAPSPVGASGRRATVTGAGSEDIAKRRKESIILSQQIAAPSISGPPPPAPSPRTEDRFLAFQNLVASTITTGDDMPRRASMGASPRVIERGDFRDHRPPPPPPLPILQNPVATPMSQQPPLPSPAPPPPRGPVDPASISLI", "soluble on expression in E. coli": "not soluble"},
      {"sequence": "MGSDKIHHHHHHMATIKDIAARLGVSISTVSKGLNGASDISEELRQTVLDTAVEMGYSTKRSRKVENRKLALFIENMNYESIDEFGYDVVLGFKQNAFKHKWDVDIIPVTPQLQAEEKYDTYILKNGYCGAFLVGFALHDEWMQQLKNTTMPTVLFDNYIENNPNVAYVGTDSYEGIDMAVKHLHNLGHKKIAFINGSLFSLVSDQRQEAFENSMRDAGLEIYPELMGHGYYIPETAQYYVSNFIAAGATAILCGSDTIAKGVISECQLHGFNVPNDISVVGFDDVKFAAALTPPLTTIRQERNDLGRCAYIILNSLIHHIPISRTQLRPMLIERESTARVSTAHAAEE", "soluble on expression in E. coli": "not soluble"},
      {"sequence": "MGSDKIHHHHHHMNLSNDSLNKSDISPAVAQQAVGWLLEMQEGALDARRQHAWQSWLNGNSEHQRAWAHMQRVNQRLSGLSSPLAHAALGAPKSAGRRHALKLLLLLGAGSMAGWSLREQIALQPLLADYNSGVGEQRKVALSDGSRVQLNTASAVDVRFDAQQRLIKLLQGELLMSASADARPLNLLSAQGTVRASTGSSRFNLRQLDGRTQLAVFAGAIEVAPANKSGPGLMLRASQQVTFGRDAWDSVRTVDANSGAWADGMLVASRMKLSDFLAELGRYRRGRLNCDANVADLLISGSYPLADSERILDMLQLALPVRVQRFTRYWVNVQARV", "soluble on expression in E. coli": "not soluble"},
      {"sequence": "MRREIRRICGFDVSDRWINLFRKKHGIRYFSGRRHADKKDKTIILSALDVTKMKTTNFLKKRRILRTSRKEYADVDLQVNKEIVRRQNKGERLTNPWIKEYAQYVAYQLHPEIPDIAKFFDANWLYRFKRRYCVELKVALNDFLYDLNSIFQPRSPEENTRSTPQTTSNEDIKSSATSMEVVTSPNYLFPHHYFNLFDQNGCGASIVKQEPTREN", "soluble on expression in E. coli": "not soluble"},
      {"sequence": "MGKTIAEKIFASHLVDEPFAGTKVLRLDVVMCHEITTPIAIADLMARGKDRVFDPTKIKAVIDHVTPSKDSKTATQAKMLRDWARRHGIVDFFDVGANGVCHALFPEKGFIRPGYTVIMGDSHTCTHGAFGAFAAGIGTTDLEVGILKGVCAFREPKT", "soluble on expression in E. coli": "not soluble"},
      {"sequence": "MSGSSEIMSMHDQIVRFSASSSAPEDTTTNSLMAEKEASLVVRLEQELTQAQICNHRLNQQLKVLANSSDKAIKIELANAKVRF", "soluble on expression in E. coli": "not soluble"},
      {"sequence": "MSLRNPIRIFIVDDHEIVRQGLKVIINQEQDFELVGESNGQKGLLKEIAEAHPDVLLLDIRISGSDGFDIASQLNEKFPSIKILIISGYESELYLVEALDHKVSGFIPKGSSRDYVCSAIRMVALGGTVWHGELLYRVIRGLSRLGNEPNDTKVQIGKSHLKPRELKVLSLLAKGKLNKEICFELQISMDTVKKDIHQLKSKYGVFNRTQLATIATEMQLKEGHHHHHH", "soluble on expression in E. coli": "not soluble"},
      {"sequence": "MGSDKIHHHHHHMVSWVRGATKSLLGCSENSRRTKGNDMAVIFKGIPSIGNGLTDDTVLWRYLDTAKFLDLLHNRTLFFCRGDRFADKYEGAFTESIKHAIEEAFRKNEINSSVAEFKTRLRERVFVNCWHQSRDDSMAMWSLYGKSSAAVAITTTVGQLRDAIKLAKLPYAINIAKVEYVKHWRDPQLVFKPYSNVFAYKLKAYDYEKEVRVIIDRFHENEDISALPDGMSAAIPLETLLRSIVVCPEAAPWFVELVGDVVHKYGVSAPVNRSKLAFDPK", "soluble on expression in E. coli": "not soluble"},
      {"sequence": "GPGSMSLEGKVALITGAGSGFGEGMAKRFAKGGAKVVIVDRDKAGAERVAGEIGDAALAVAADISKEADVDAAVEAALSKFGKVDILVNNAGIGHKPQNAELVEPEEFDRIVGVNVRGVYLMTSKLIPHFKENGAKGQECVILNVASTGAGRPRPNLAWYNATKGWVVSVTKALAIELAPAKIRVVALNPVAGETPLLTTFMGEDSEEIRKKFRDSIPMGRLLKPDDLAEAAAFLCSPQASMITGVALDVDGGRSIGGRSI", "soluble on expression in E. coli": "soluble"}
    ]}
  ]
}
